Data on 30 sequences can be found in the nanobody polyreactivity screen of Harvey et al. (2022).

The nature of this data set: yeast display, Sf9 membrane polyspecificity reagent, FACS + sequencing; frameworks hold sequencing errors. The method in brief: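 Galactose induction of a Saccharomyces cerevisiae BJ5465 synthetic nanobody display library ran 36–48 hours. The cells were then stained for 1 hour at 4 °C with 10% biotinylated, detergent-solubilized Sf9 membrane reagent, pulled down on streptavidin microbeads and FACS-sorted into low and high (top ~1%) gates on expression and reagent-binding fluorescence. Labels for polyreactivity follow the gate of origin.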
On to “QVQLVESGGGLVQAGGSLRLSCAASGFTFYSYAMGWYRQAPGKERELVAAITKRGGSTSYADSVKGRFTISRDNAKNTVYLQMNSLKPEDTAVYYCNRRATKAQYGDEVDYWGQGTQVTVSS”, for which the “polyreactivity (PSR sort gate)” value is “high polyreactivity”.

“QVQLVESGGGLVQAGGSLRLSCAASGFTFYSYAMGWYRQAPGKERELVAVISKRGGSTRYADSVKGRFTISRDNAKNTVYLQMNSLKPEDTAVYYCNADQHSITYNEFDYWGQGTQVTVSS”: the “polyreactivity (PSR sort gate)” value was “low polyreactivity”.

“QVQLVESGGGLVQAGGSLRLSCAASGFTFYSYDMGWYRQAPGKERELVAVITERGSSTYYADSVKGRFTISRDNAKNTVYLQMNSLKPEDTAVYYCAAYSEYYGVYYWGQGTQVTVSS”: the “polyreactivity (PSR sort gate)” value was “low polyreactivity”.

In the case of “QVQLVESGGGLVQAGGSLRLSCAASGFTFYTKAMGWYRQAPGKERELVAGINSGSSTYYADSVKGRFTISRDNAKNTVYLQMNSLKPEDTAVYYCAARRSRYILRGFGYWGQGTQVTVSS”, the “polyreactivity (PSR sort gate)” value is “high polyreactivity”.

For the sequence “QVQLVESGGGLVQAGGSLRLSCAASGFTFYTNAMGWYRQAPGKERDMVAVITSGGNTYYADSVKGRFTISRDNAKNTVYLQMNSLKPEDTAVYYFAAIPKRPIRFDYWGQGTQVTVSS”, the “polyreactivity (PSR sort gate)” value was “high polyreactivity”.

On to “QVQLVESGGGLVQAGGSLRLSCAASGFTFYTNAMGWYRQATGKERELVAVITSGGNTYYADSVKGRFTISRDNAKYTVYLQMNSLKPEDTAVYYCAAKPKRPIRFDYWGQGTQVTVSS”, for which the “polyreactivity (PSR sort gate)” value was “high polyreactivity”.

On to “QVQLVESGGGLVQAGGSLRLSCAASGFTFYTYAMGWYRQAPGKERELVAAITGSGGRTYYADSVKGRFTISRDNAKNTVYLQMNSLKPEDTAVYYCAALYVYRPRTPYGYWGQGTQVTVSS”, for which the “polyreactivity (PSR sort gate)” value was “high polyreactivity”.

As for “QVQLVESGGGLVQAGGSLRLSCAASGFTFYTYAMGWYRQAPGKERELVAAITSSGGSTYYADSVKGRFTISRDHAKNTVYLQMNSLKPEDTAVYYCKAVSYYLGDDYWGPGTQVTVSS”, the “polyreactivity (PSR sort gate)” value was “high polyreactivity”.

Consider “QVQLVESGGGLVQAGGSLRLSCAASGFTFYVNAMGWYRQAPGKEREFVAAISSSGASTRYADSVKGRFTISRDNAKNTVYLQMNSLKPEDTAVYYCAADAPAWILEAYGYWGQGTQVTVSS”, for which the “polyreactivity (PSR sort gate)” value is on record as “low polyreactivity”.

In the case of “QVQLVESGGGLVQAGGSLRLSCAASGFTFYVNAMGWYRQAPGKERELVAAITDDGDSTYYADSVKGRFTISRDNAKNTVYLQMNSLKPEDTAVYYCNTVYGPDLYGTEYDYWGQGTQVTVSS”, the “polyreactivity (PSR sort gate)” value is recorded as “low polyreactivity”.

On to “QVQLVESGGGLVQAGGSLRLSCAASGFTFYVYTMGWYRQAPGKERELVAAITWSGGSTYYADSVKGRFTISRDNAKNNVYLQMNSLKPEDTAVYYCNRVGYWVGHDSWGQGTQVTVSS”, for which the “polyreactivity (PSR sort gate)” value is reported as “high polyreactivity”.

Regarding “QVQLVESGGGLVQAGGSLRLSCAASGFTFYWYAMGWYRQAPGKERELVAAISNRGGSTYYADSVKGRFTISRDNAKNTVYLQMNSLKPEDTAVYYCATESRGVGAARYDYWGQGTQVTVSS”, the “polyreactivity (PSR sort gate)” value is on record as “high polyreactivity”.

As for “QVQLVESGGGLVQAGGSLRLSCAASGFTFYYYAMGWYRQAPGKERELVAAISGGGGSTYYADSVKGRFTISRDNAKNTVYLQMNSLKPEDTAVYYCAAVGSWRYNYDYDYWGQGTQVTVSS”, the “polyreactivity (PSR sort gate)” value is given as “high polyreactivity”.

As to “QVQLVESGGGLVQAGGSLRLSCAASGFTFYYYAMGWYRQAPGKERELVAAISYSGGSTYYADSVKGRFTISRDNAKNTVYLQMNSLKPEDTAVYYCAALYTGESGYWGQGTQVTVSS”, the “polyreactivity (PSR sort gate)” value is listed as “high polyreactivity”.

As for “QVQLVESGGGLVQAGGSLRLSCAASGFTFYYYAMGWYRQAPGKERELVAAITKNGGRTFYADSVKGRFTISRDNAKNTVYLQMNSLKPEDTAVYYCATVGNWPDYYYWGQGTQVTVSS”, the “polyreactivity (PSR sort gate)” value is “high polyreactivity”.

“QVQLVESGGGLVQAGGSLRLSCAASGFTFYYYAMGWYRQAPGKERELVASISSSGGSTYYADSVKGRFTISRDNAKNTVYLQMNSLKPEDTAGYYCARYRRRYDTYPGDYWGQGTQVTVSS”: the “polyreactivity (PSR sort gate)” value is “high polyreactivity”.

In the case of “QVQLVESGGGLVQAGGSLRLSCAASGFTFYYYAMGWYRQATGKVRELVAAISARGGSTYYADSVKGRFTISRDNAKNTVYLQMNSLKPEDTAVYYCNAVTGHTSYEYDYWGQGTQVTVSS”, the “polyreactivity (PSR sort gate)” value is listed as “high polyreactivity”.

For the sequence “QVQLVESGGGLVQAGGSLRLSCAASGFTGGRYAMGWYRQEPGKERELVDDISWSGGGTYYADSVKGRFTISRDNAKNTVYLQMNSLKPEDTAVYYCAAYWYRSYKRYGYWGQGTQVTVSS”, the “polyreactivity (PSR sort gate)” value is on record as “high polyreactivity”.

With “QVQLVESGGGLVQAGGSLRLSCAASGFTGVNAMGWYRQAPGKERELVARISNSGGSTYYADSVKGRFTISRDNAKNTVYLQMNSLKPEDTAVYYCNADSYYWGQGTQVTVSS”, the “polyreactivity (PSR sort gate)” value is “high polyreactivity”.

With “QVQLVESGGGLVQAGGSLRLSCAASGFTIAKYAMGWYRQAPGKERELVAAISSSGGRTYYADSVKGRFTISRDNAKNTVYLQMNSLKPEDTAVYYCAADFSGPFDYWGQGTQVTVSS”, the “polyreactivity (PSR sort gate)” value was “high polyreactivity”.

With “QVQLVESGGGLVQAGGSLRLSCAASGFTIAVYVMGWYRQAPGNERELVATISFSVGSTYYADSVKGRFTISRDNAKNTVYLLMNCLKPEVTAVYYCNADPPPEYYPDKDNSWGQGTQVTVSS”, the “polyreactivity (PSR sort gate)” value was “low polyreactivity”.

Consider “QVQLVESGGGLVQAGGSLRLSCAASGFTICTYAMGWYRQAPGKERELVAAIDSGGSTYYADSVMGRFTISRDNAKTTVYLQMNSLKPEDTAVYYCNAGPSVTSGYDYDYWGQGTQVTVSS”, for which the “polyreactivity (PSR sort gate)” value is reported as “low polyreactivity”.

With “QVQLVESGGGLVQAGGSLRLSCAASGFTIDKNVMGWYRQAPGKERELVAAISVRGGTTYYADSVKGRFTISRDNAKNTVYLQMNSLKPEDTAVYYCAARAYGPPARYDSWGQGTQVTVSS”, the “polyreactivity (PSR sort gate)” value is given as “low polyreactivity”.

Take “QVQLVESGGGLVQAGGSLRLSCAASGFTIGDNAMGWSRQAPGKERELVAAITWSGGSTYYADSVKGRFTISRDNAKNTVYLQMNSLKPEDTAVYYCAADKLRELDYWGQGTEVTVSS”: the “polyreactivity (PSR sort gate)” value is on record as “low polyreactivity”.

“QVQLVESGGGLVQAGGSLRLSCAASGFTIGRYAMGWYRQAPGKERELVAAISKNGGRTYYADSVKGRFTISRDNAKNTVYLQMNSLKPEDTAVYYCNTDWYYTGRVHGFDYWGQGTQVTVSS”: the “polyreactivity (PSR sort gate)” value is on record as “high polyreactivity”.

In the case of “QVQLVESGGGLVQAGGSLRLSCAASGFTIGSYAMGWYRQAPGKEREFVAAIRRSGSSTYYADSVKGRFTISRDNAKNTVYLQMNSLKPEDTAVYYCAADVYRRLRRYRYYYWGQGTQVTVSS”, the “polyreactivity (PSR sort gate)” value is on record as “low polyreactivity”.

As for “QVQLVESGGGLVQAGGSLRLSCAASGFTIISYTMGWYRQAPGKDRELVAAIRGGGRTYYADSVKGRFTISRDNAKNTVYLQMNSLKPEDTAVYYCAARLRYGGHYDYWGQGTQVTVSS”, the “polyreactivity (PSR sort gate)” value is reported as “high polyreactivity”.

“QVQLVESGGGLVQAGGSLRLSCAASGFTINFYSLGWYRQAPGKERELVAAITASGGGSTYYADSVKGRFTISRDNAKNTVYLQMNSLKQEDTAVYYCNADFTGSFYTYEYWGQGTQVTVAS”: the “polyreactivity (PSR sort gate)” value was “low polyreactivity”.

“QVQLVESGGGLVQAGGSLRLSCAASGFTIQRYAMGWYRQAPGKERELVAAITSGGSTYYADSVKGSFTISRDNAKNTVYFQMNSLKPEDTSVYYCATRAVWSSWGRRYDSWGQGTQVTVSS”: the “polyreactivity (PSR sort gate)” value is listed as “high polyreactivity”.

Take “QVQLVESGGGLVQAGGSLRLSCAASGFTIRRNAMGWYRQAPGKERELVAAISRSGGSTYADSVKGRFTISRDNAKNTVYLQMNSLKPEDTAVYYFASDHSDYRYTYTALIAEFYYWGQGTQVTVSS”: the “polyreactivity (PSR sort gate)” value was “low polyreactivity”.
